The values below are quoted from earlier work in publication PMC3433420.

Read-outs that look alike come from different tables or passages of the source.

Common to all, as to settings: cited from earlier work
The target in data set [1] is SHB (Homo sapiens) (UniProt Q15464).
For data set [2], the target named is ABL2 (Homo sapiens) (UniProt P42684).
Data set [3] has as its target BLK (Homo sapiens) (UniProt P51451).
Data set [4] has as its target ABL2 (Homo sapiens) (UniProt P42684). This is another data set of the same source.
For data set [5], the target named is YES1 (Homo sapiens) (UniProt P07947).
Data set [6] concerns the target RASA1-N (Homo sapiens) (UniProt P20936).
Data set [7] deals with SYK-NC (Homo sapiens) (UniProt P43405).
Data set [8] addresses RASA1-N (Homo sapiens) (UniProt P20936). This is another data set of the same source.
In data set [9] the target is SYK-NC (Homo sapiens) (UniProt P43405). This is another data set of the same source.
Data set [10] addresses VAV3 (Homo sapiens) (UniProt Q9UKW4).
Data set [11] deals with VAV2 (Homo sapiens) (UniProt P52735).
The target in data set [12] is FGR (Homo sapiens) (UniProt P09769).
Data set [13] concerns the target PIK3R3-N (Homo sapiens) (UniProt Q92569).
The target of data set [14] is SHC1-PTB (Homo sapiens) (UniProt P29353).
In data set [15] the target is VAV2 (Homo sapiens) (UniProt P52735). This is another data set of the same source.
The target of data set [16] is SHC1-PTB (Homo sapiens) (UniProt P29353). This is another data set of the same source.
The target of data set [17] is PIK3R1-NC (Homo sapiens) (UniProt P27986).
Data set [18] has as its target SYK-NC (Homo sapiens) (UniProt P43405). The source holds these as a separate data set.
In data set [19] the target is NCK2 (Homo sapiens) (UniProt O43639).
In data set [20] the target is SYK-C (Homo sapiens) (UniProt P43405).
Data set [21] addresses VAV1 (Homo sapiens) (UniProt P15498).
Data set [22] addresses ABL2 (Homo sapiens) (UniProt P42684). The source holds these as a separate data set.
Data set [23] concerns the target CRKL (Homo sapiens) (UniProt P46109).
For data set [24], the target named is NCK2 (Homo sapiens) (UniProt O43639). This is another data set of the same source.
Data set [25] concerns the target PIK3R2-N (Homo sapiens) (UniProt O00459).
The target of data set [26] is RASA1-N (Homo sapiens) (UniProt P20936). This is another data set of the same source.
Data set [27] concerns the target ABL2 (Homo sapiens) (UniProt P42684). The source holds these as a separate data set.
The target in data set [28] is YES1 (Homo sapiens) (UniProt P07947). This is another data set of the same source.
The target in data set [29] is ITK (Homo sapiens) (UniProt Q08881).
In data set [30] the target is PIK3R3-NC (Homo sapiens) (UniProt Q92569).
For data set [31], the target named is GRB2 (Homo sapiens) (UniProt P62993).
In data set [32] the target is PIK3R3-NC (Homo sapiens) (UniProt Q92569). This is another data set of the same source.
In data set [33] the target is RASA1-N (Homo sapiens) (UniProt P20936). This is another data set of the same source.
Data set [34] deals with PLCG2-NC (Homo sapiens) (UniProt P16885).
Data set [35] addresses RASA1-NC (Homo sapiens) (UniProt P20936).
Data set [36] addresses SOCS5 (Homo sapiens) (UniProt O75159).
The target of data set [37] is PLCG2-NC (Homo sapiens) (UniProt P16885). The source holds these as a separate data set.
The target of data set [38] is RASA1-N (Homo sapiens) (UniProt P20936). This is another data set of the same source.
Data set [39] concerns the target ABL2 (Homo sapiens) (UniProt P42684). This is another data set of the same source.
In data set [40] the target is SLA (Homo sapiens) (UniProt Q13239).
Data set [41] deals with GRB7 (Homo sapiens) (UniProt Q14451).
The target of data set [42] is PIK3R3-NC (Homo sapiens) (UniProt Q92569). This is another data set of the same source.
For data set [43], the target named is PIK3R3-N (Homo sapiens) (UniProt Q92569). The source holds these as a separate data set.
For data set [44], the target named is PIK3R3-NC (Homo sapiens) (UniProt Q92569). The source holds these as a separate data set.
The target in data set [45] is ABL2 (Homo sapiens) (UniProt P42684). The source holds these as a separate data set.
Data set [46] addresses PIK3R1-NC (Homo sapiens) (UniProt P27986). This is another data set of the same source.
Data set [47] addresses RASA1-N (Homo sapiens) (UniProt P20936). This is another data set of the same source.
Data set [48] addresses FGR (Homo sapiens) (UniProt P09769). This is another data set of the same source.
Data set [49] addresses BLK (Homo sapiens) (UniProt P51451). The source holds these as a separate data set.
In data set [50] the target is YES1 (Homo sapiens) (UniProt P07947). The source holds these as a separate data set.
The target of data set [51] is PIK3R2-N (Homo sapiens) (UniProt O00459). The source holds these as a separate data set.
The target of data set [52] is ZAP70-NC (Homo sapiens) (UniProt P43403).
Sequence of ZAP70-NC (Homo sapiens) (P43403 5-259): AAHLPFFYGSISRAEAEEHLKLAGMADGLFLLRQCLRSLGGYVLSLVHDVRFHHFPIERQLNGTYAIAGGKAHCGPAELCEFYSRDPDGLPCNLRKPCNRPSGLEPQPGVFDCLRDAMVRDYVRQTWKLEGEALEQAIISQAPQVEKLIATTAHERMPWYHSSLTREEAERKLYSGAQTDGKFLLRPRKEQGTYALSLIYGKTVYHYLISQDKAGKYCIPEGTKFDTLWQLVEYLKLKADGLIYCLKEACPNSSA

Sequence of ABL2 (Homo sapiens) (P42684 168-268): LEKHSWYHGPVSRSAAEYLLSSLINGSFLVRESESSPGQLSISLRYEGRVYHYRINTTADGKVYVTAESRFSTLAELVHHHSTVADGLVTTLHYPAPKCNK
Sequence of RASA1-N (Homo sapiens) (P20936 176-446): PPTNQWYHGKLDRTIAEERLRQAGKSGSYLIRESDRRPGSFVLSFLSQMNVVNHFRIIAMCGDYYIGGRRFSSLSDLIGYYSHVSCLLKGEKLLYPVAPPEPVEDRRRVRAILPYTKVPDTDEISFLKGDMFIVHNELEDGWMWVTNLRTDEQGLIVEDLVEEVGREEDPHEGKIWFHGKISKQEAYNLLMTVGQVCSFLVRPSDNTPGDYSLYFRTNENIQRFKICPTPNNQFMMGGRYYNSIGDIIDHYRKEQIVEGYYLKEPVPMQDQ
Sequence of YES1 (Homo sapiens) (P07947 153-260): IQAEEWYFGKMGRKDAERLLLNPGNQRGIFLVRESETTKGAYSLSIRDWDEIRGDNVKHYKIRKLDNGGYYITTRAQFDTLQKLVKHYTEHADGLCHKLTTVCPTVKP
Sequence of BLK (Homo sapiens) (P51451 119-225): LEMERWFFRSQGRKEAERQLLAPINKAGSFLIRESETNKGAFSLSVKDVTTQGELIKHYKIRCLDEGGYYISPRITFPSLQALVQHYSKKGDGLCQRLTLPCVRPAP
Sequence of NCK2 (Homo sapiens) (O43639 280-380): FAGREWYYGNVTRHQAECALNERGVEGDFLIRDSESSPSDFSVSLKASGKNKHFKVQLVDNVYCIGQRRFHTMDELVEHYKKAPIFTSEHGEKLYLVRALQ
Sequence of PIK3R1-NC (Homo sapiens) (P27986 328-723): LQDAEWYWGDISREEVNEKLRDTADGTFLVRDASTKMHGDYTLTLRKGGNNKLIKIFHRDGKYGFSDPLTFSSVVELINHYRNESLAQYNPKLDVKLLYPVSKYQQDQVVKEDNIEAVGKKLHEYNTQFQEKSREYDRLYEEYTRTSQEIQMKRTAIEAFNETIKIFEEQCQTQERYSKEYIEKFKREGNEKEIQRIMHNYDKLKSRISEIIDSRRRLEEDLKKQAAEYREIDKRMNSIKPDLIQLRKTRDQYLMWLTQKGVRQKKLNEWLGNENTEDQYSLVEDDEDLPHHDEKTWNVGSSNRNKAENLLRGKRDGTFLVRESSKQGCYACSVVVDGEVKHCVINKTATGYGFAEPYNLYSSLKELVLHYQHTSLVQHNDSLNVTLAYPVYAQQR
Sequence of SHC1-PTB (Homo sapiens) (P29353 483-583): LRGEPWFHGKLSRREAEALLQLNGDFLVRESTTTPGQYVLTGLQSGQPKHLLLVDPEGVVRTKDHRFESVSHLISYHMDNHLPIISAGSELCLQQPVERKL
Sequence of PIK3R2-N (Homo sapiens) (O00459 325-721): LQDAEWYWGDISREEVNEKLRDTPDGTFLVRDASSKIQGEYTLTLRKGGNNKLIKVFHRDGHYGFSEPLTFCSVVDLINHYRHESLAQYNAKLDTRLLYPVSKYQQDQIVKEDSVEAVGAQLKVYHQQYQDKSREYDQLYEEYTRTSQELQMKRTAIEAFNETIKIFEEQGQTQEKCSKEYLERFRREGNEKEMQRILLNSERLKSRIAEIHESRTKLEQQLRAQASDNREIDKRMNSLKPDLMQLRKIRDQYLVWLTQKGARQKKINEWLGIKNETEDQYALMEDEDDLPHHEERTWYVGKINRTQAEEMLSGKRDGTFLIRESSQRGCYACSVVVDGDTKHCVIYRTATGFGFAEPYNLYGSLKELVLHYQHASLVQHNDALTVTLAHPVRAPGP
Sequence of PLCG2-NC (Homo sapiens) (P16885 527-740): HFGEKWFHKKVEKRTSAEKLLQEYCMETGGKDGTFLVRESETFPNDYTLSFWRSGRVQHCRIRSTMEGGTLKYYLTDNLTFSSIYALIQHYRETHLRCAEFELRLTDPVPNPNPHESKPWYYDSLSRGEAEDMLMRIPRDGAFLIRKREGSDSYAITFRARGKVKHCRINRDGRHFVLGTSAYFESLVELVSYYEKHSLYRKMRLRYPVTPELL
Sequence of VAV2 (Homo sapiens) (P52735 668-772): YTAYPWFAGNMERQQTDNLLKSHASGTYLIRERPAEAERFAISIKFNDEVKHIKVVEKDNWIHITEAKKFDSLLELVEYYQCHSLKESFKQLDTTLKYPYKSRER
Sequence of GRB7 (Homo sapiens) (Q14451 426-532): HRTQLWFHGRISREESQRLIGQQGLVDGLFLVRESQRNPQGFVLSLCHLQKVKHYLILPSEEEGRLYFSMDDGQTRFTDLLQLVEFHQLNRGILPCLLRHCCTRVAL
Sequence of VAV3 (Homo sapiens) (Q9UKW4 667-771): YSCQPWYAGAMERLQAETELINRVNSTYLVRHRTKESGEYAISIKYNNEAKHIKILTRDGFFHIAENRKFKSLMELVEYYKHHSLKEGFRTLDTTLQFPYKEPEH
Sequence of ITK (Homo sapiens) (Q08881 234-343): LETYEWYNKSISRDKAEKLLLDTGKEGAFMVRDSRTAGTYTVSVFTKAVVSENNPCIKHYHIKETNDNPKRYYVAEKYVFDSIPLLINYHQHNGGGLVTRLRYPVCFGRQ
Sequence of SLA (Homo sapiens) (Q13239 79-180): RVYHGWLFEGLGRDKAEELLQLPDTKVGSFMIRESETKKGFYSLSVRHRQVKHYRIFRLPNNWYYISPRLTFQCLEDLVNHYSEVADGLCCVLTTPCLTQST
Sequence of SOCS5 (Homo sapiens) (O75159 376-481): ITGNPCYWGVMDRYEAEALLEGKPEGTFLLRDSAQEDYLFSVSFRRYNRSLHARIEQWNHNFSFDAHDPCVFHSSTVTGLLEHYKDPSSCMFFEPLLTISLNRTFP
Sequence of SHB (Homo sapiens) (Q15464 405-509): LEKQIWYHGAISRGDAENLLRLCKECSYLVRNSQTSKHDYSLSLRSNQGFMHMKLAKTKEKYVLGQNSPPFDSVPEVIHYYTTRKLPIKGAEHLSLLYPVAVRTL
Sequence of GRB2 (Homo sapiens) (P62993 55-157): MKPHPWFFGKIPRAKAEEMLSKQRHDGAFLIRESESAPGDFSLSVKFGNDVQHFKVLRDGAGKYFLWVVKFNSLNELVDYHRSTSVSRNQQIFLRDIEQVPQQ
Sequence of RASA1-NC (Homo sapiens) (P20936 176-446): as the sequence (P20936 176-446) above
Sequence of CRKL (Homo sapiens) (P46109 9-107): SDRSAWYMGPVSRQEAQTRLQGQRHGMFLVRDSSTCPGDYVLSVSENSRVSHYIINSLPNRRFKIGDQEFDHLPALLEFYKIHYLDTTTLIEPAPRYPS
Sequence of VAV1 (Homo sapiens) (P15498 666-770): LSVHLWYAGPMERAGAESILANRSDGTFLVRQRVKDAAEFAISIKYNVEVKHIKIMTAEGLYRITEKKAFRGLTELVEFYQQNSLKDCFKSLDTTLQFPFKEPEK

Turning to …pYDGIPASEd, the apparent Kd (screen) in data set [1] was 1060 nM; in data set [2], 177 nM; in data set [3], 1180 nM; in [4], 137 nM; in data set [5], 328 nM; in data set [6], 1470 nM. Moreover, the apparent Kd (screen) in data set [7] was 1550 nM; in data set [8] it was 1410 nM.
For the substance …pYLTPQGGA, the apparent Kd (screen) in data set [9] is 1150 nM; in [10], 596 nM; in [11] it was 226 nM; in data set [12], 1680 nM; in [13] it was 1380 nM; in [14], 346 nM. Besides, the apparent Kd (screen) in data set [15] is 372 nM; in data set [16] it was 153 nM; in [17], 226 nM; in data set [18], 1330 nM; in [19] it was 1100 nM; in data set [20], 1240 nM. The apparent Kd (screen) in data set [21] is 1240 nM; in data set [22] it was 476 nM; in [23] it was 1440 nM; in data set [24], 759 nM; in [25] it was 1280 nM; in data set [26], 671 nM. Also, the apparent Kd (screen) in data set [27] is 368 nM; in data set [28], 1190 nM; in [29], 767 nM; in [30], 1340 nM; in data set [31], 1330 nM; in data set [32] it was 950 nM. The apparent Kd (screen) in data set [33] was 638 nM; in [34] it was 1350 nM.
Turning to …pYMNRQRDG, the apparent Kd (screen) in data set [35] was 2000 nM; in data set [36], 2000 nM; in data set [37], 2000 nM; in data set [38], 1210 nM; in data set [39] it was 1960 nM; in [40], 2000 nM. Besides, the apparent Kd (screen) in [41] and in data set [42] was 2000 nM throughout.
In the case of …pYMNRRRRH, the apparent Kd (screen) in data set [43] is 1380 nM; in data set [44] it was 1460 nM; in [45], 296 nM; in [46] it was 1510 nM; in [47], 306 nM; in data set [48], 1130 nM. Also, the apparent Kd (screen) in [49] was 1810 nM; in data set [50], 585 nM; in [51] it was 1350 nM; in data set [52], 1470 nM.
